Data from publication PMC139967.

Target: T701-Myo1c (neck-tail fragment of bullfrog myosin-1c, amino acids 701-1028) (bullfrog) (UniProt Q92002)
Assay: SDS-PAGE gel scanning

Chain of T701-Myo1c (neck-tail fragment of bullfrog myosin-1c, amino acids 701-1028) (bullfrog) (Q92002 701-1028): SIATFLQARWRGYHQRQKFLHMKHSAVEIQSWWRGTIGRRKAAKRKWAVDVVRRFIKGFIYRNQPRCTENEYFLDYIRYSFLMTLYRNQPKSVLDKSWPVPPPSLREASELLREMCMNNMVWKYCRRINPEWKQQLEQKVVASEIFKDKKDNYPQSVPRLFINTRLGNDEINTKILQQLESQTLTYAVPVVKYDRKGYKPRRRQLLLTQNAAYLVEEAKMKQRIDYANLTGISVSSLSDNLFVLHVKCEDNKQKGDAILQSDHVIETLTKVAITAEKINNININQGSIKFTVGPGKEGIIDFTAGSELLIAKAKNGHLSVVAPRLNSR

stoichiometry N (calmodulins per T701-Myo1c): 2.6
Substance: Xenopus calmodulin (from UniProt P0DP33 1-149) (natural protein)
